Measured values published in publication PMC11655841 (Cell Death & Disease, 2024).

Assays:
DARPin B9 [1] = assay: ITC; target proteins (p53 family domains) titrated to constant concentrations of DARPin; 25 °C; 50 mM HEPES pH 7.4, 150 mM NaCl, 0.5 mM TCEP; MicroCal VP-ITC
DARPin B9 [2] = assay: crystal structure; complex of DARPin and p73 domain mixed from purified proteins, isolated by SEC; sitting drop at 20 °C, 30% PEG2000MME, 0.15 M potassium bromide
[3] = biological target: DARPin B9-B9 (DARPin B9 fused to another DARPin B9 via a (G4S)4 linker); assay: ITC; target proteins (p53 family domains) titrated to constant concentrations of DARPin; 25 °C; 50 mM HEPES pH 7.4, 150 mM NaCl, 0.5 mM TCEP; MicroCal VP-ITC
[4] = biological target: DARPin 1800 LZ (DARPin 1800 dimerized via a leucine zipper) (yeast) (UniProt P03069); assay: as above
[5] = biological target: DARPin B9 LZ (DARPin B9 dimerized via a leucine zipper) (yeast) (UniProt P03069); assay: as above
DARPin 1800 [6] = assay: as above
[7] = biological target: DARPin 1800–1800 (DARPin 1800 fused to another DARPin 1800 via a (G4S)4 linker); assay: as above
[8] = biological target: the molecule itself; assay: crystal structure; complex of DARPin and p73 domain mixed from purified proteins, isolated by SEC; sitting drop at 20 °C, 30% PEG2000MME, 0.15 M potassium bromide
DARPin 1800 [9] = assay: as above; conditions: scale: DARPin 1800 per p73 OD

Row | Kd (DARPin B9 [1]) [nM] | stoichiometry N (p73 SAM domain per DARPin B9) (DARPin B9 [2]) | Kd [3] [nM] | Kd [4] [nM] | Kd [5] [nM] | Kd (DARPin 1800 [6]) [nM] | Kd [7] [nM] | stoichiometry N (DARPin 1800 [9]) | Binder | binding result [8]
1 | 58.8 | 1 |  |  |  |  |  |  | p73 SAM domain (aa 489–550 of TAp73α) (domain or fragment) ADPSLVSFLTGLGCPNCIEYFTSQGLQSIYHLQNLTIEDLGALKIPEQYRMTIWRGLQDLKQ | 
2 | 309 |  | 46 | 4 | 64 | 67 | 13 |  | p73 DBD-OD-SAM (amino acids 112–550 of TAp73α) (domain or fragment) APVIPSNTDYPGPHHFEVTFQQSSTAKSATWTYSPLLKKLYCQIAKTCPIQIKVSTPPPPGTAIRAMPVYKKAEHVTDVVKRCPNHELGRDFNEGQSAPASHLIRVEGNNLSQYVDDPVTGRQSVVVPYEPPQVGTEFTTILYNFMCNSSCVGGMNRRPILIIITLEMRDGQVLGRRSFEGRICACPGRDRKADEDHYREQQALNESSAKNGAASKRAFKQSPPAVPALGAGVKKRRHGDEDTYYLQVRGRENFEILMKLKESLELMELVPQPLVDSYRQQQQLLQRPSHLQPPSYGPVLSPMNKVHGGMNKLPSVNQLVGQPPPHSSAATPNLGPVGPGMLNNHGHAVPANGEMSSSHSAQSMVSGSHCTPPPPYHADPSLVSFLTGLGCPNCIEYFTSQGLQSIYHLQNLTIEDLGALKIPEQYRMTIWRGLQDLKQ | 
3 |  |  |  |  |  | 94.5 |  | 2 | DEDTYYLQVRGRENFEILMKLKESLELMELVPQPLVDSYRQQQQLLQR (domain or fragment, UniProt O15350 351-398, looked up) [p73 oligomerization domain (aa 351–398 of TAp73α)] | binds
